Results on seven molecules are retold here after patent publication US20210293791A1, “BACTERIAL VAGINOSIS DIAGNOSTIC” (MOLOGIC LTD, priority 2018, published 2021).

For orientation: Kd means the concentration at which binding is half-saturated. A lower Kd goes with a tighter complex. In general, koff refers to the first-order rate constant of dissociation. Lower therefore signals slow dissociation. The term kon denotes the second-order rate constant of association. Read a low kon as slow association.

One data set has as its system antisera CF1064. The note with it: ELISA and lateral flow, FIG. 19. From the text:
To refine the peptide design and remove peripheral interactions of antibodies not binding the galactose moiety in the peptide, the original sequence MOL136 was truncated to a shorter sequence MOL600: […]
For orientation: ELISA stands for enzyme-linked immunosorbent assay.

Another data set has as its system MOL136 and MOL136c. Description: Lateral flow assay with gold-labelled antisera on streptavidin capture zone. To be noted: gold-labelled CF1064; peptide 1.3 ng/ml (38 μg per strip). The class given is binding.
The subject of a further data set is sialidase. The note with it: 25 U/ml sialidase in PBST for 5 minutes.
Data set [1] deals with T1, MOL600c: NH2-Cyc-DAla-Ser[Gal-Sial]-DAla-Arg-PEG-Biotin.
T1 sequence: XASAR

The subject of data set [2] is T2, MOL136c: biotin-PEG-Asp-Glu-DSer-Nva-Cyc-DAla-Ser[Gal-Sial]-DAla-Arg-Phe-DSer-Val-OH.
T2 sequence: DESXXASARFSV

The subject of a further data set is MOL600. Description: Antibody binding affinity and kinetics by bio-inferometry, peptide immobilised on biosensor by streptavidin/biotin. The method, then: (§1) MOL615 was biotinylated to yield MOL600 (sequence provided in Example 7) and antibody binding affinity and kinetics was measured using bio-inferometry. […] Binding of the antibody was detected by a shift in the reflected light interference.

The target of data set [3] is T3, MOL600: NH2-Cyc-DAla-Ser[Gal]-DAla-Arg-PEG-Biotin (reading uncertain; also: printed as NH2-Cyc-DAla-Ser[Gal]-DAla-Arg-PEG-Biotin).
T3 construct: MOL600 is its de-sialylated form; Immobilised on a streptavidin biosensor through biotin
T3 peptide: H-[Ac6c][dA]S(Gal)[dA]R-{PEG-Biotin′}
Put plainly: bio-layer interferometry, peptide immobilised on streptavidin biosensor, antibody at 1, 2, 4, 8 or 16 nM. The method, then:
as §1
On the technique in general: BLI is a label-free optical method that tracks binding on a fibre tip over time.

[4] abbreviates: antibody at 1, 2, 4, 8 or 16 nM, MOL600 immobilised.

Non-standard residues stand in square brackets, D forms with d. Primed or numbered codes have the meaning given here. Gal = galactose on Ser (no sialyl group); Biotin′ = not defined here; Ac6c = NC1(C(=O)O)CCCCC1; PEG = not defined here

Description for MOL136 and MOL136c: CF1064 was conjugated to gold particles in optimised conditions (15 μg/ml loading in 10 mM sodium borate buffer; pH 8.0) and assayed against MOL136 and MOL136c at a final concentration of 1.3 ng/ml (38 μg per strip). Thus, a capture zone was first formed on each lateral flow test strip using 1.5 mg/ml streptavidin. Then, 3 μl of each peptide (12.5 ng/ml peptide in PBST) was mixed with 10 μl of gold-labelled CF1064 and 15 μl of running buffer (0.5 M Tris at pH 7.5+3% BSA+0.5% Triton X-100) before each sample was run along a separate lateral flow test strip. A negative control in which no peptide was added was also run as a negative control. 15 μl of running buffer wash was then run along each lateral flow test strip.
Description for sialidase: Thus, a capture zone was first formed on each lateral flow test strip using 1.5 mg/ml streptavidin. Then, 3 μl of each peptide (12.5 ng/ml peptide in PBST) was mixed with 10 μl of gold-labelled CF1064 and 15 μl of running buffer (0.5 M Tris at pH 7.5+3% BSA+0.5% Triton X-100) before each sample was run along a separate lateral flow test strip. A negative control in which no peptide was added was also run as a negative control. 15 μl of running buffer wash was then run along each lateral flow test strip.
The procedure described in Example 4B was repeated in the presence of 25 U/ml sialidase. A sample in which sialidase was absent was used as a negative control. A further negative control was run in which no peptide and no sialidase was included in the sample. As a positive control, MOL136 was used in place of MOL136c in the presence of 25 U/ml sialidase.

For the molecule “NH2—Cyc-DAla-Ser[Gal-Sial]-DAla-Arg-PEG-Biotin [MOL600c]”, the “performance compared with MOL136/MOL136c” value in the data set with antisera CF1064 is recorded as “significant improvement in performance”. On the same count and under the same terms, in the case of “NH2—Cyc-DAla-Ser[Gal]-DAla-Arg-PEG-Biotin [MOL600]” it was “significant improvement in performance”. On to “biotin-PEG-Asp-Glu-DSer-Nva-Cyc-DAla-Ser[Gal-Sial]-DAla-Arg-Phe-DSer-Val-OH [MOL136c]”, for which the “signal in the capture zone (visible line on the test strip)” value in the data set with MOL136 and MOL136c was “little/no signal”. Further, in the data set with sialidase, the “lateral flow signal after sialidase incubation” value is recorded as “clear positive signal”. Take “biotin-PEG-Asp-Glu-DSer-Nva-Cyc-DAla-Ser[Gal]-DAla-Arg-Phe-DSer-Val-OH [MOL136]”: in the data set with MOL136 and MOL136c, the “signal in the capture zone (visible line on the test strip)” value is “clearly detected”. Regarding sialidase, in data set [1], the “lateral flow test line signal” value is given as “signal has been recovered by spiking in sialidase”. The “lateral flow test line signal with gold-labelled CF1064” value in data set [2] is “A clear positive signal was observed in respect of MOL136c incubated in the presence of 25 U/ml sialidase in PBST for 5 minutes”.

B1: antibody 125.1: rabbit monoclonal antibody, heavy chain SEQ ID NO: 7, light chain SEQ ID NO: 8, specific for Cyc-DAla-Ser[Gal]-DAla-Arg (antibody, listed as Oryctolagus cuniculus)
heavy: QSVEESGGRLVTPGTPLTLTCTVSGFSLSSYSMDWVRQAPGKGLEWVGGITTTLHTFYATWAKGRFTISKTSSTTVDLKMTSLTTDDAATYFCARGGSSVIWGPGTLVTVSSGQPKAPSVFPLAPCCGDTPSSTVTLGCLVKGYLPEPVTVTWNSGTLTNGVRTFPSVRQSSGLYSLSSVVSVTSSSQPVTCNVAHPATNTKVDKTVAPSTCSKPTCPPPELLGGPSVFIFPPKPKDTLMISRTPEVTCVVVDVSEDDPEVQFTWYINNEQVRTARPPLREQQFNSTIRVVSTLPIAHEDWLRGKEFKCKVHNKALPAPIEKTISKARGQPLEPKVYTMGPPREELSSRSVSLTCMINGFYPSDISVEWEKNGKAEDNYKTTPAVLDSDGSYFLYSKLSVPTSEWQRGDVFTCSVMHEALHNHYTQKSISRSPG
light: ALVMTQTPSPVSAAVGGTVTISCQSSQSVYGNNHLNWHQQKRGQPPKQLIGSASRLASGVPSRFKGSGSGTQFTLTISGVQCDDAATYYCQGSYYNGAWYVAFGGGTELEIKRDPVAPSVLLFPPSKEELTTGTATIVCVANKFYPSDITVTWKVDGTTQQSGIENSKTPQSPEDNTYSLSSTLSLTSAQYNSHSVYTCEVVQGSASPIVQSFNRGDC
On to B1, for which the “binding specificity for MOL600 compared to the sialylated form MOL600c” value in the data set with MOL600 (FIG. 27) was “clearly specific for MOL600”. In the data set with MOL600 (setting [4]), this molecule returned a Koff of 0.000427 s⁻¹ and a Kon of 54080 M⁻¹ s⁻¹.

B2: monoclonal antibody 125.1 (antibody, V domains shown)
VH: QSVEESGGRLVTPGTPLTLTCTVSGFSLSSYSMDWVRQAPGKGLEWVGGITTTLHTFYATWAKGRFTISKTSSTTVDLKMTSLTTDDAATYFCARGGSSVIWGPGTLVTVSS
VL: ALVMTQTPSPVSAAVGGTVTISCQSSQSVYGNNHLNWHQQKRGQPPKQLIGSASRLASGVPSRFKGSGSGTQFTLTISGVQCDDAATYYCQGSYYNGAWYVAFGGGTELEIKR
modifications: Pyro-Glu(Q) at N-terminal of heavy chain; N-linked glycosylation at constant region N@285; additional O-linked glycosylation site between positions 213 and 216 (partly occupied); C-terminal lysine eliminated
notes: Rabbit monoclonal from immunisation with KLH-MOL616; Gamma heavy chain and Kappa light chain
In data set [3], B2 gave a Kd of 7.9 nM, a koff of 0.000427 s⁻¹ and a kon of 54100 M⁻¹ s⁻¹.
